Reference: paper PMC5500810 (2017)
Positions count from the first letter of the chain named.

B1: Nb 22 (VHH)
VHH: QVQLQESGGGPVRAGESLRLSCTASGRAFSTYTMGWFRQAPGKERELVAVITPGGNTNYADSVKGRFTISRDDAKNTVYLQMNSLKPVDTAVYYCHVVLAVVGTGNEYDVWGQGTQVTVSS
modifications: biotin on primary amines (EZ link NHS biotin) in the Eph receptor selectivity AlphaScreen only
B2: Nb 50 (VHH)
VHH: QVQLQESGGGLVQAGGSLRLSCAASGRTFNSYAEAWFRQAPGKEREMIAAVTKAGTTNYANPVKGRFTISRDDAKNMVYLQMNNLKPEDSAVYYCNAISPLWDEYDFWGPGTQVTVSS
modifications: biotin on primary amines (EZ link NHS biotin) in the Eph receptor selectivity AlphaScreen only
B3: Nb 31 (VHH)
VHH: B2 VHH with R27F, T28A, F29S, N30D, S31A, E34I, A35G, K43T, E44K, T56A
modifications: biotin on primary amines (EZ link NHS biotin) in the Eph receptor selectivity AlphaScreen only
B4: Nb 53 (VHH)
VHH: B2 VHH with L11V, T28A, N30S, E34M, A35G, K43T, E44K, K53R
modifications: biotin on primary amines (EZ link NHS biotin) in the Eph receptor selectivity AlphaScreen only
B5: Nb 60 (VHH)
VHH: QVQLQESGGGLVQPGGSLRLSCAASGFTFSRYWIYWVRQAPGKQRELVAAITRNGVTNYADSVKGRFTISTDDNKNTVYLQMNSLKSEDTAVYYCNAWGFLLGDIEDYWGQGTQVTVSS
modifications: biotin on primary amines (EZ link NHS biotin) in the Eph receptor selectivity AlphaScreen only
B6: Nb 19 (VHH)
VHH: QVQLQESGGGLVQPGGSLRLSCAATGRNFNAYSIAWFRQAPGKEREFVASINWSGSNTYYAVAVKGRFTTSRDNAKNTVYLQMNSLKPEDTAVYYCNAFAAGWGPDYWGQGTQVTVSS
B7: Nb 57 (VHH)
VHH: QVQLQESGGGLVQPGGSLRLSCAASGFTFSSYYMYWVRQAPGKGLEWVSTINTGGGSTNYADSVKGRFIISRDNAKNTVYLQMNSLKPEDTAVYYCNAFAAGWGPDYWGQGTQVTVSS
modifications: biotin on primary amines (EZ link NHS biotin) in the Eph receptor selectivity AlphaScreen only
B8: Nb 39 (VHH)
VHH: QVQLQESGGGLVQPGGSLKLSCAASGFTFSTYAMSWVRQAPGKGLEWVSRINSGGGYTWHADSVKGRFTISRDNARNTVYLQMNNLKPEDTAVYYCTNLNTGWRPEYWGQGTQVTVSS
modifications: biotin on primary amines (EZ link NHS biotin) in the Eph receptor selectivity AlphaScreen only
B9: Nb 34 (VHH)
VHH: QVQLQESGGGLVQAGGSLRLSCAASGFTFSSYAMSWVRQAPGKGLEWVSGINTGGGSTYYADSVKGRFTISRDNAKNTLYLQMNSLKSEDTAVYYCVPRVGVLEGLTSFGSWGQGTQVTVSS

Each binder was assayed against T1, EphA4 ligand-binding domain (human, amino acids 22-203) (human, UniProt P54764 22-203, biotin on primary amines (EZ link NHS biotin) in the AlphaScreen assays only) (assay: SPR; kd1).
T1 sequence (P54764 22-203): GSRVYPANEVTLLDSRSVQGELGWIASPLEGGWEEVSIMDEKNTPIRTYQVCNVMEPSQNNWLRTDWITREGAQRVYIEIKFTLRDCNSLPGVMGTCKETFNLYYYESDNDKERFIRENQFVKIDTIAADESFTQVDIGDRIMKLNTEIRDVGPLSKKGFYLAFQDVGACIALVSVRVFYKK

koff [s⁻¹] | Binder
0.0143 | B1
0.192 | B2
0.155 | B3
0.0594 | B4
0.115 | B5
0.108 | B6
0.257 | B7
0.0607 | B8

These binders were tested against T2, human EphA4-Fc (R&D Systems) (human, UniProt P54764 20-547) (assay: SPR; kd1).
T2 sequence (P54764 20-547): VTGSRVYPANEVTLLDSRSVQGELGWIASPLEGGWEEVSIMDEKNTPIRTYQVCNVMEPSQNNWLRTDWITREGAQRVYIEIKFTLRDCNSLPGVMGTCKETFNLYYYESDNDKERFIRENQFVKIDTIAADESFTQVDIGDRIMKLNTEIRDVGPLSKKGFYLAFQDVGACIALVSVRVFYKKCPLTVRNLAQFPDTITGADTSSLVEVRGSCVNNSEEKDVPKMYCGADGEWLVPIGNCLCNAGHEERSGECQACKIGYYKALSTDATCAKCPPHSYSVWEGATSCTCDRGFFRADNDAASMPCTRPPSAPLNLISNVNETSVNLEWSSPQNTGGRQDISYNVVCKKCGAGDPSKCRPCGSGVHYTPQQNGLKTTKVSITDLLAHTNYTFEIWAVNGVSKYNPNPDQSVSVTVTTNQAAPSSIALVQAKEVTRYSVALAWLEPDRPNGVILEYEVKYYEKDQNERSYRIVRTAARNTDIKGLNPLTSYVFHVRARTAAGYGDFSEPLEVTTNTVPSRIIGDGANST

koff [s⁻¹] | Binder
0.168 | B2
0.2 | B3
0.168 | B9

These binders were tested against T3, mouse EphA4-Fc (R&D Systems) (mouse, UniProt Q03137 20-547) (assay: SPR; kd1).
T3 sequence (Q03137 20-547): as the sequence (P54764 20-547) above, with P59A, N121S, V124G, R250Q, S251N, T270S, K378R, N406S counted along it

koff [s⁻¹] | Binder
0.151 | B3
0.345 | B9

What follows are binders tested against T1, EphA4 ligand-binding domain (human, …) (assay: SPR).

Kd [nM] | Binder
54.1 | B1
87.3 | B2
293 | B3
45.7 | B4
37 | B5
507 | B6
57.5 | B7
56.6 | B8

These binders were tested against T2, human EphA4-Fc (R&D Systems) (assay: SPR).

Kd [nM] | Binder
47.1 | B1
64.2 | B2
175 | B3
22.6 | B4
39.6 | B5
852 | B6
18000 | B9
38.3 | B7
30.1 | B8

Each binder was assayed against T3, mouse EphA4-Fc (R&D Systems) (assay: SPR).

Kd [nM] | Binder
104 | B1
104 | B2
258 | B3
22.8 | B4
27.4 | B5
1140 | B6
26900 | B9
37.8 | B7
23.6 | B8

What follows are binders tested against T1, EphA4 ligand-binding domain (human, …) (assay: SPR; kd2).

koff [s⁻¹] | Binder
0.00255 | B1
0.00062 | B2
0.00676 | B3
0.00213 | B4
0.00018 | B5
0.0289 | B6
0.00133 | B7
0.00186 | B8

What follows are binders tested against T2, human EphA4-Fc (R&D Systems) (assay: SPR; kd2).

koff [s⁻¹] | Binder
0.0022 | B2
0.0105 | B3
0.0121 | B9

What follows are binders tested against T3, mouse EphA4-Fc (R&D Systems) (assay: SPR; kd2).

koff [s⁻¹] | Binder
0.0115 | B3
0.0226 | B9

Target: T2, human EphA4-Fc (R&D Systems)
Assay: SPR
Remark: another data set of the same source

koff [s⁻¹] | Binder
0.0148 | B1
0.0156 | B4
0.0488 | B5
0.091 | B6
0.229 | B7
0.0291 | B8

Target: T3, mouse EphA4-Fc (R&D Systems)
Assay: SPR
Remark: another data set of the same source

koff [s⁻¹] | Binder
0.023 | B1
0.114 | B2
0.0244 | B4
0.135 | B6
0.288 | B7
0.0158 | B8
